The target of this assay is Schlegelella thermodepolymerans KpsE (L77C, S138C) (Schlegelella thermodepolymerans). The assay can be described thus: cryo-EM structure; KpsMT(E151Q)-KpsE, co-expressed and purified in LMNG (100 mM NaCl, 50 mM Tris pH 7.5, 0.025% LMNG, 5 mM MgCl2), supplemented with 2 mM ATP before grid preparation.

Drawing on paper PMC11041684, this text covers stoichiometry N for one substance.

One may read the stoichiometry N as the number of molecules, sites or subunits per partner or assembly.

In the case of “Schlegelella thermodepolymerans KpsE (L77C, S138C) (natural protein)”, the stoichiometry N stood at 8.
